Assay results from patent US20240376214A1, “ANTI-C-MET ANTIBODIES AND ANTIBODY-DRUG CONJUGATES” (BYONDIS B.V., priority 2021, published 2024).
Where a chain is given by its changes, count along the chain named.

B1: ADC3 (antibody, human IgG1, kappa, V domains shown)
VH: QIQLQQSGPELVKPGASVKISCKASGYTFTDYYLNWVKQRCGQGLEWIGLIFPGNDKTEYSEKFKGKATLTVDTSSSTAYIQLSRLSSEDSAIYFCSGGDYGGFVYWGQGTLVTVSS
VL: DIQMTQSPTSLSASVGETVTITCGASENIYGALNWYQRKQGKSPQLLIYGATNLADGMSSRFSGSGSGRQFSLKINSLHPDDVATYFCQNVLSSPLTFGSGTKLEIKR
modifications: vc-seco-DUBA linker-drug on the engineered cysteine at HC position 41 (Kabat); DAR 1.1
B2: ADC1a (antibody, human IgG1, kappa, V domains shown)
VH: QVQLVQSGAEVKKPGASVKVSCKASGYIFTDYFMNWVRQACGQGLEWMGRVNPKNGDITYNQKFRGRVSLTKDTSINTAYMELSGLTSDDTAIYYCAYDGYYDGMDFWGQGTSVTVSS
VL: ELVMTQSPSSLSASVGDRVTITCRANSSVSSNFLHWYQQKPGKAPKLLISSTSNLAFGVPSRFSGTGSGTDFSLTISSLQPEDFAIYYCHQYSGHPFTFGQGTKLEIKR
modifications: vc-seco-DUBA linker-drug on the engineered cysteine at HC position 41 (Kabat); DAR 1.7
B3: ADC2 (antibody, human IgG1, kappa, V domains shown)
VH: QVQLQQSGAELVRPGASVKLSCKASGYVFPDYEMHWVKQTCVHGLEWIGAFDPETGDTTYNQNFKGKATLTADKASSTAYMDLRSLTSGDSAVYYCARDYKYLYYYAMDNWGQGTSVTVSS
VL: QIVLTQSPAIMSASLGERVTMTCTASSSITSSYLHWYQQKPGSSPKLWIYSTTNLASGVPGRFSGSGSGTSFSLTISSMEAEDAATYYCHQYRRSPLTFGAGTKLELKR
modifications: vc-seco-DUBA linker-drug on the engineered cysteine at HC position 41 (Kabat); DAR 1.7
B4: ADC3a (antibody, human IgG1, kappa, V domains shown)
VH: QVQLVQSGAEVKKPGASVKVSCKASGYTFTDYYLNWVRQACGQGLEWMGLIFPGNDKTEYSEKFKGRVTLTTDTSISTAYMELSSLTSDDTALYYCSGGDYGGFVYWGQGTLVTVSS
VL: DIQLTQSPSSLSASVGDRVTITCGASENIYGALNWYQQKPGKAPKLLIYGATNLADGVPSRFSGSGSGTDFTLTISSLQPEDFATYYCQNVLSSPLTFGPGTKVDIKR
modifications: vc-seco-DUBA linker-drug on the engineered cysteine at HC position 41 (Kabat); DAR 1.9
B5: ADC3c (antibody, human IgG1, kappa, V domains shown)
VH: B4 VH
VL: B4 VL with L4M, F83V, P100S, V104L, D105E
modifications: vc-seco-DUBA linker-drug on the engineered cysteine at HC position 41 (Kabat); DAR 1.8
B6: ADC3d (antibody, human IgG1, kappa, V domains shown)
VH: B4 VH with V5Q, Q6E, L70M, T72R, I76T, A79V, T87R, D89E, L93V
VL: B4 VL
modifications: vc-seco-DUBA linker-drug on the engineered cysteine at HC position 41 (Kabat); DAR 1.8
B7: ADC3e (antibody, human IgG1, kappa, V domains shown)
VH: B4 VH with V5Q, Q6E, L70M, T72R, I76T, A79V, T87R, D89E, L93V
VL: B4 VL with L4M, F83V, P100S, V104L, D105E
modifications: vc-seco-DUBA linker-drug on the engineered cysteine at HC position 41 (Kabat); DAR 1.9
B8: ADC1 (antibody, human IgG1, kappa, V domains shown)
VH: EVQLQQSGPELLKPGASVKMSCKASGYIFTDYFMNWVKQSCGKSLEWIGRVNPKNGDITYNQKFRGKATLTVDKSLTTAYMQLNSLTSEDSAVYFCAYDGYYDGMDFWGQGTSVTVSS
VL: ENVLTQSPAIMSASPGEKVTMTCRANSSVSSNFLHWYQQKSGASPKLWISSTSNLAFGVPPRFSGSGSGTSYSLTISSVEAEDAATYYCHQYSGHPFTFGSGTKLEIKR
modifications: vc-seco-DUBA linker-drug on the engineered cysteine at HC position 41 (Kabat); DAR 1.5
B9: ADC2a (antibody, human IgG1, kappa, V domains shown)
VH: QVQLVQSGAELRKPGSSVKVSCRASGYVFPDYEMHWVRQACGQGLEWMGAFDPETGDTTYNQNFKGRVTIAADKSTSTAYMELRSLRSEDTAIYYCARDYKYLYYYAMDNWGQGTMVTVSS
VL: EIVLTQSPSLLSASIGDRVTIPCTASSSITSSYLHWYQQKPGKAPKLLIYSTTNLASGVPSRFSGSGSGTEFTLTISSLQPEDFATYYCHQYRRSPLTFGGGTKLEIKR
modifications: vc-seco-DUBA linker-drug on the engineered cysteine at HC position 41 (Kabat); DAR 1.7
B10: ADC2c (antibody, human IgG1, kappa, V domains shown)
VH: B9 VH with L11V, R12K, R23K, A71T, R84S, I93V, M116T
VL: B9 VL
modifications: vc-seco-DUBA linker-drug on the engineered cysteine at HC position 41 (Kabat); DAR 1.7
B11: ADC2b (antibody, human IgG1, kappa, V domains shown)
VH: B9 VH with L11V, R12K, R23K, A71T, R84S, I93V, M116T
VL: B9 VL with E1D, V3Q, L4M, L10S, I15V, P22T, E71D
modifications: vc-seco-DUBA linker-drug on the engineered cysteine at HC position 41 (Kabat); DAR 1.7

Key:
[1] = target: human c-Met (HGFR), full length, on the cell surface (human) (UniProt P08581); experiment: cell-based or functional assay
[2] = target: human c-Met (HGFR), full length, on the cell surface (human, UniProt P08581 25-1390); experiment: cell-based or functional assay
Chain of human c-Met (HGFR), full length, on the cell surface (P08581 25-1390 limits assumed): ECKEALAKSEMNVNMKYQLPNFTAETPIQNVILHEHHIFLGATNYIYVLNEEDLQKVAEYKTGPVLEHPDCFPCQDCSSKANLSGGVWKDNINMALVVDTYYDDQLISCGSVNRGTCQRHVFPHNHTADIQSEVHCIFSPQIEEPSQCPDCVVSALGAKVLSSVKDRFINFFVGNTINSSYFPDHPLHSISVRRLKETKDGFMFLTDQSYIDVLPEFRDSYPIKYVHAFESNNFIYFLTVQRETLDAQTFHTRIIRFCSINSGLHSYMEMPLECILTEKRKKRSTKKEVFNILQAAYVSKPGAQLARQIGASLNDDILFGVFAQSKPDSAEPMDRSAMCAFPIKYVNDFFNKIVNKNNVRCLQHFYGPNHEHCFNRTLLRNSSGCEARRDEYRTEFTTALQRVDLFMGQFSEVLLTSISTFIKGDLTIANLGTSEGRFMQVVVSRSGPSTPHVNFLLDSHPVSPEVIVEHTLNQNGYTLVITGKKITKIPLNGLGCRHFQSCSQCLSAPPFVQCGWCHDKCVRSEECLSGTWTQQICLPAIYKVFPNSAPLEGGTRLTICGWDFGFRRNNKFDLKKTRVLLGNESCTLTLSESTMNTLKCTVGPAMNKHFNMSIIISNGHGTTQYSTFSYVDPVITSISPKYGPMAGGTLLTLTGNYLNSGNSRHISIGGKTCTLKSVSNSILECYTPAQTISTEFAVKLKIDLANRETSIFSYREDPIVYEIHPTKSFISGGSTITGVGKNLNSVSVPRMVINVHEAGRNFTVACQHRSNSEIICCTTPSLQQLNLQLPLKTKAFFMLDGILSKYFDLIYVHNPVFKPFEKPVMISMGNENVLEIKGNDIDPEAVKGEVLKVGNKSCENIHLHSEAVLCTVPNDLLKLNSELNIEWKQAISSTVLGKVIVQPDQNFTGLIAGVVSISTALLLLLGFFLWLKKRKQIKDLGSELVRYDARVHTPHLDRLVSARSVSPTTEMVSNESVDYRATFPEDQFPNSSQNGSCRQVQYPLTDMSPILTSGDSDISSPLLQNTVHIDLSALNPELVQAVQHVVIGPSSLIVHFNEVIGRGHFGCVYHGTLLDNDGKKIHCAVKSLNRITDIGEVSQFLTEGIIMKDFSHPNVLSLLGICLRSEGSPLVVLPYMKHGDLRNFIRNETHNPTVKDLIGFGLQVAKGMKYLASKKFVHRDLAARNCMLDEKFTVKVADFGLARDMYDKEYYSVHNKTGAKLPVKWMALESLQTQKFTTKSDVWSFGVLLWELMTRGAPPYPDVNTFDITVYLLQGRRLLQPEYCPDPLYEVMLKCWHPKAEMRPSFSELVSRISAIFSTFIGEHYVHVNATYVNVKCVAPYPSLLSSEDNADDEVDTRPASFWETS

Chain of human c-Met (HGFR), full length, on the cell surface (human) (P08581 25-1390 limits assumed): as above

Molecule	Efficacy (%), in vitro cytotoxicity, MKN-45, -HGF [2]	Efficacy (%), in vitro cytotoxicity, NCI-H596, +HGF [2]	Efficacy (%), in vitro cytotoxicity, NCI-H596, -HGF [2]	Efficacy (%), in vitro cytotoxicity, PC-3, +HGF [2]	Efficacy (%), in vitro cytotoxicity, PC-3, -HGF [2]	IC50, in vitro cytotoxicity, MKN-45, -HGF [2]	IC50, in vitro cytotoxicity, NCI-H596, +HGF [2]	IC50, in vitro cytotoxicity, NCI-H596, -HGF [2]	IC50, in vitro cytotoxicity, PC-3, +HGF [2]	IC50 1, in vitro cytotoxicity, PC-3, -HGF [2]	IC50 2, in vitro cytotoxicity, PC-3, -HGF [2]	further results
non-binding control ADC (rituximab-vc-seco-DUBA) (antibody)	–	–	–	–	–	–	–	–	–	–	–	Efficacy (%), in vitro cytotoxicity, MKN-45, -HGF [1]: 0%; Efficacy (%), in vitro cytotoxicity, NCI-H596, +HGF [1]: 18%; Efficacy (%), in vitro cytotoxicity, NCI-H596, -HGF [1]: 7%; Efficacy (%), in vitro cytotoxicity, PC-3, +HGF [1]: 36%; Efficacy (%), in vitro cytotoxicity, PC-3, -HGF [1]: 36%; IC50, in vitro cytotoxicity, MKN-45, -HGF [1]: > 10 nM; IC50, in vitro cytotoxicity, NCI-H596, +HGF [1]: > 10 nM; IC50, in vitro cytotoxicity, NCI-H596, -HGF [1]: > 10 nM; IC50, in vitro cytotoxicity, PC-3, +HGF [1]: > 10 nM; IC50, in vitro cytotoxicity, PC-3, -HGF [1]: > 10 nM
B1	50%	53%	16%	30%	24%	0.77 nM	1.86 nM	> 10 nM	0.224 nM	–	–	IC50, in vitro cytotoxicity, PC-3, -HGF [2]: 0.076 nM
B2	84%	40%	14%	77%	78%	0.42 nM	> 10 nM	> 10 nM	~1.22 nM	0.6 nM	224 nM	–
B3	76%	32%	6%	69%	69%	0.44 nM	> 10 nM	> 10 nM	~10 nM	0.05 nM	84 nM	–
B4	85%	43%	3%	72%	73%	0.55 nM	2.14 nM	> 10 nM	~0.71 nM	0.05 nM	5.77 nM	–
B5	84%	44%	10%	72%	73%	0.41 nM	1.89 nM	> 10 nM	~1.85 nM	0.04 nM	112 nM	–
B6	82%	41%	5%	73%	74%	0.5 nM	2.17 nM	> 10 nM	~2.49 nM	0.04 nM	54 nM	–
B7	81%	44%	11%	74%	74%	0.46 nM	2.52 nM	> 10 nM	~2.86 nM	0.04 nM	541 nM	–
B8	72%	29%	16%	42%	41%	0.73 nM	0.38 nM	> 10 nM	0.185 nM	–	–	IC50, in vitro cytotoxicity, PC-3, -HGF [2]: 0.069 nM
B9	86%	26%	8%	76%	77%	0.44 nM	> 10 nM	> 10 nM	~0.74 nM	0.06 nM	40 nM	–
B10	84%	32%	3%	75%	76%	0.41 nM	> 10 nM	> 10 nM	~1.97 nM	0.08 nM	58 nM	–
B11	84%	34%	10%	75%	77%	0.4 nM	> 10 nM	> 10 nM	~2.46 nM	0.05 nM	100 nM	–
